# Data as given in IntAct's records for PubMed 20506337.
# B1: AH receptor-interacting protein (Homo sapiens), O00170 (parent)
# chain: MADIIARLREDGIQKRVIQEGRGELPDFQDGTKATFHYRTLHSDDEGTVLDDSRARGKPMELIIGKKFKLPVWETIVCTMREGEIAQFLCDIKHVVLYPLVAKSLRNIAVGKDPLEGQRHCCGVAQMREHSSLGHADLDALQQNPQPLIFHMEMLKVESPGTYQQDPWAMTDEEKAKAVPLIHQEGNRLYREGHVKEAAAKYYDAIACLKNLQMKEQPGSPEWIQLDQQITPLLLNYCQCKLVVEEYYEVLDHCSSILNKYDDNVKAYFKRGKAHAAVWNAQEAQADFAKVLELDPALAPVVSRELRALEARIRQKDEEDKARFRGIFSH
# partner: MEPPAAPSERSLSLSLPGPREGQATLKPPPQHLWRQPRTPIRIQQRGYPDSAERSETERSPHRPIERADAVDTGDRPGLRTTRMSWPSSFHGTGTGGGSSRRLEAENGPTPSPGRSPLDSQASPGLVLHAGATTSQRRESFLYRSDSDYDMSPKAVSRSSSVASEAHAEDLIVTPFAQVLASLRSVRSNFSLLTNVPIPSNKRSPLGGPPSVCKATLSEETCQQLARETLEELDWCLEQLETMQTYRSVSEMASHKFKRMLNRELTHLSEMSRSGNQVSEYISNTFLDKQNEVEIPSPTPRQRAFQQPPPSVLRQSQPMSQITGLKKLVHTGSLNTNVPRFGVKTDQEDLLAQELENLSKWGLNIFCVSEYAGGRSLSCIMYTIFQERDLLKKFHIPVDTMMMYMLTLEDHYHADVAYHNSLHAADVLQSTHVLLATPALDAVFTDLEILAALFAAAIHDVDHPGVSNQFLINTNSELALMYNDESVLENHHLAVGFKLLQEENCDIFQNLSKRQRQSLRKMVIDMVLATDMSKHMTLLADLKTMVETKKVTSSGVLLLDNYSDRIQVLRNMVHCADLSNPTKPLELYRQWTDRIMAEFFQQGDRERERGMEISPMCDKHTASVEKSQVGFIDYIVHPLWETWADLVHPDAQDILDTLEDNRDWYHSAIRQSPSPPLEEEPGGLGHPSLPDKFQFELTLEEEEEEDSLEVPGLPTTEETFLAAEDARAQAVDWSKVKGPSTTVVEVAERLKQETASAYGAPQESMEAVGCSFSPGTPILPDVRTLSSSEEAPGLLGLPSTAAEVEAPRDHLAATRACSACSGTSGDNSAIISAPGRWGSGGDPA
# Variants of: B1
# Details: with pde4a_rat Pde4a
row,effect of a mutation on the interaction,Variant
1,decreasing interaction strength,MADIIARLREDGIQKRVIQEGRGELPDFQDGTKATFHYRTLHSDDEGTVLDDSRARGKPMELIIGKKFKLPVWETIVCTMREGEIAQFLCDIKHVVLYPLVAKSLRNIAVGKDPLEGQRHCCGVAQMREHSSLGHADLDALQQNPQPLIFHMEMLKVESPGTYQQDPWAMTDEEKAKAVPLIHQEGNRLYREGHVKEAAAKYYDAIACLKNLQMKEQPGSPEWIQLDQQITPLLLNYCQCKLVVEEYYEVLDHCSSVLNKYDDNVKAYFKRGKAHAAVWNAQEAQADFAKVLELDPALAPVVSRELRALEARIRQKDEEDKARFRGIFSH [I257V]
2,decreasing interaction strength,MADIIARLREDGIQKRVIQEGRGELPDFQDGTKATFHYRTLHSDDEGTVLDDSRARGKPMELIIGKKFKLPVWETIVCTMREGEIAQFLCDIKHVVLYPLVAKSLRNIAVGKDPLEGQRHCCGVAQMREHSSLGHADLDALQQNPQPLIFHMEMLKVESPGTYQQDPWAMTDEEKAKAVPLIHQEGNRLYREGHVKEAAAKYYDAIACLKNLQMKEQPGSPEWIQLDQQITPLLLNYCQCKLVVEEYYEVLDHCSSILNKYDDNVKAYFKRGKAHAAVWNAQEAQADFAKVLELDPALVPVVSRELRALEARIRQKDEEDKARFRGIFSH [A299V]
3,disrupting interaction strength,MADIIARLREDGIQKRVIQEGRGELPDFQDGTKATFHYRTLHSDDEGTVLDDSRARGKPMELIIGKKFKLPVWETIVCTMREGEIAQFLCDIKHVVLYPLVAKSLRNIAVGKDPLEGQRHCCGVAQMREHSSLGHADLDALQQNPQPLIFHMEMLKVESPGTYQQDPWAMTDEEKAKAVPLIHQEGNRLYREGHVKEAAAKYYDAIACLKNLQMKEQPGSPEWIQLDQQITPLLLNYCQCELVVEEYYEVLDHCSSILNKYDDNVKAYFKRGKAHAAVWNAQEAQADFAKVLELDPALAPVVSRELRALEARIRQKDEEDKARFRGIFSH [K241E]
4,decreasing interaction strength,MADIIARLREDGIQKRVIQEGRGELPDFQDGTKATFHYRTLHSDDEGTVLDDSRARGKPMELIIGKKFKLPVWETIVCTMREGEIAQFLCDIKHVVLYPLVAKSLRNIAVGKDPLEGQRHCCGVAQMREHSSLGHADLDALQQNPQPLIFHMEMLKVESPGTYQQDPWAMTDEEKAKAVPLIHQEGNRLYREGHVKEAAAKYYDAIACLKNLQMKEQPGSPEWIQLDQQITPLLLNYCQCKLVVEEYYEVLDHCSSILNKYDDNVKAYFKRGKAHAAVWNAQEAQADFAKVLELDPALAPVVSQELRALEARIRQKDEEDKARFRGIFSH [R304Q]
5,disrupting interaction strength,MADIIARLREDGIQKRVIQEGRGELPDFQDGTKATFHYRTLHSDDEGTVLDDSRARGKPMELIIGKKFKLPVWETIVCTMREGEIAQFLCDIKHVVLYPLVAKSLRNIAVGKDPLEGQRHCCGVAQMREHSSLGHADLDALQQNPQPLIFHMEMLKVESPGTYQQDPWAMTDEEKAKAVPLIHQEGNRLYREGHVKEAAAKYYDAIACLKNLQMKEQPGSPEWIQLDQQITPLLLNYCQCKLVVEEYYEVLDHCSSILNKYDDNVKAYFKWGKAHAAVWNAQEAQADFAKVLELDPALAPVVSRELRALEARIRQKDEEDKARFRGIFSH [R271W]

# The remaining lines, values behind:
row,Variant,effect of a mutation on the interaction
1,MADIIARLREDGIQKRVIQEGRGELPDFQDGTKATFHYRTLHSDDEGTVLDDSRARGKPMELIIGKKFKLPVWETIVCTMREGEIAQFLCDIKHVVLYPLVARSLRNIAVGKDPLEGQRHCCGVAQMREHSSLGHADLDALQQNPQPLIFHMEMLKVESPGTYQQDPWAMTDEEKAKAVPLIHQEGNRLYREGHVKEAAAKYYDAIACLKNLQMKEQPGSPEWIQLDQQITPLLLNYCQCKLVVEEYYEVLDHCSSILNKYDDNVKAYFKRGKAHAAVWNAQEAQADFAKVLELDPALAPVVSRELRALEARIRQKDEEDKARFRGIFSH [K103R],disrupting interaction strength
2,MADIIARLREDGIQKRVIQEGRGELPDFQDGTKATFHYRTLHSDDEGTMLDDSRARGKPMELIIGKKFKLPVWETIVCTMREGEIAQFLCDIKHVVLYPLVAKSLRNIAVGKDPLEGQRHCCGVAQMREHSSLGHADLDALQQNPQPLIFHMEMLKVESPGTYQQDPWAMTDEEKAKAVPLIHQEGNRLYREGHVKEAAAKYYDAIACLKNLQMKEQPGSPEWIQLDQQITPLLLNYCQCKLVVEEYYEVLDHCSSILNKYDDNVKAYFKRGKAHAAVWNAQEAQADFAKVLELDPALAPVVSRELRALEARIRQKDEEDKARFRGIFSH [V49M],with no effect
3,MADIIARLREDGIQKHVIQEGRGELPDFQDGTKATFHYRTLHSDDEGTVLDDSRARGKPMELIIGKKFKLPVWETIVCTMREGEIAQFLCDIKHVVLYPLVAKSLRNIAVGKDPLEGQRHCCGVAQMREHSSLGHADLDALQQNPQPLIFHMEMLKVESPGTYQQDPWAMTDEEKAKAVPLIHQEGNRLYREGHVKEAAAKYYDAIACLKNLQMKEQPGSPEWIQLDQQITPLLLNYCQCKLVVEEYYEVLDHCSSILNKYDDNVKAYFKRGKAHAAVWNAQEAQADFAKVLELDPALAPVVSRELRALEARIRQKDEEDKARFRGIFSH [R16H],decreasing interaction strength
4,MADIIARLREDGIQKRVIQEGRGELPDFQDGTKATFHYRTLHSDDEGTVLDDSRARGKPMELIIGKKFKLPVWETIVCTMREGEIAQFLCDIKHVVLYPLVAKSLRNIAVGKDPLEGQRHCCGVAQMREHSSLGHADLDALQQNPQPLIFHMEMLKVESPGTYQQDPWAMTDEEKAKAVPLIHQEGNRLYREGHVKEAAAKYYDAIACLKNLQMKEQPGSPEWIQLDQQITPLLLNYYQCKLVVEEYYEVLDHCSSILNKYDDNVKAYFKRGKAHAAVWNAQEAQADFAKVLELDPALAPVVSRELRALEARIRQKDEEDKARFRGIFSH [C238Y],disrupting interaction strength
